The record followed here is US20020062009A1 (GlaxoSmithKline, published 2002).

For assay [1], the target named is T1, human erythropoietin receptor (EPOr), recombinant entire extracellular domain (human, UniProt P19235 25-250).
T1 construct: extracellular domain; also called human EPOr; monomeric EPOr
T1 sequence (looked up): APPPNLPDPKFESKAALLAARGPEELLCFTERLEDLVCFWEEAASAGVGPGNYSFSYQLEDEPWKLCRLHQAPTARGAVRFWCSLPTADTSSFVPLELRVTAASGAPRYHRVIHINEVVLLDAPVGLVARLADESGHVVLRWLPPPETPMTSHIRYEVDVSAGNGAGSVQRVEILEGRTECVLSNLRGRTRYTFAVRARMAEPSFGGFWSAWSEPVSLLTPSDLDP
The assay can be described thus: BIAcore 1000 SPR; antibody captured by protein A-bound rabbit anti-mouse Fc, monomeric EPOr in solution, 20 C; KD from ratio of kinetic constants. Here is the method:
(§1) A BIAcore analysis (Pharmacia) was performed to determine the binding affinity for human EPOr of murine 3G9 and CP3G9. The interaction of CP3G9 as well as murine 3G9 with EPOr was characterized using a BIAcore 1000 biosensor. Descriptions of the instrumentation and the sensor surfaces are described in Brigham-Burke et al., Anal. Biochem., 205:125-131 (1992).
(§2) CP3G9 was captured onto a sensor surface of immobilized protein A. The kinetic binding constants were determined by passing solutions of monomeric EPOr over the surface and monitoring binding versus time. The equilibrium dissociation constant for the interaction was then derived from the ratio of the kinetic constants. The parent murine 3G9 was captured onto a surface of protein A captured rabbit anti-mouse Fc specific polyclonal antibody. The kinetics and dissociation constant for the interaction with EPOr was determined as described above. All measurements were made in 10 mM sodium phosphate, 150 mM NaCl pH 7.23 mM EDTA and 0.005% Tween 20. The flow rate was 60 uL/min. The temperature was 20° C.

Assay [2] has as its target T1, human erythropoietin receptor (EPOr), …. Put plainly: BIAcore 1000 SPR; antibody captured by protein A-bound rabbit anti-mouse Fc, monomeric EPOr in solution, 20 C. On the procedure: as §1, §2
For orientation: Surface plasmon resonance follows binding to a sensor surface in real time, without labels.

The target is the same in assay [3]. Put plainly: BIAcore 1000 SPR; antibody captured by protein A-bound rabbit anti-mouse Fc, monomeric EPOr in solution, 20 C (exponent as printed; kon and KD imply 10^-3). On the procedure:
as §1, §2

Assay [4] shares this target. The assay can be described thus: BIAcore 1000 SPR. Here is the method: as §1, §2
Assay [5] has the same target. Put plainly: BIAcore 1000 SPR; antibody captured on immobilized protein A, monomeric EPOr in solution, 20 C (exponent as printed; kon and KD imply 10^-3). On the procedure: as §1, §2
Assay [6] has the same target. Put plainly: BIAcore 1000 SPR; antibody captured on immobilized protein A, monomeric EPOr in solution, 20 C. On the procedure: as §1, §2
Assay [7] shares this target. Put plainly: BIAcore 1000 SPR; antibody captured on immobilized protein A, monomeric EPOr in solution, 20 C; KD from ratio of kinetic constants. On the procedure: as §1, §2
The target of assay [8] is T2, purified human alpha v beta 3 integrin (biotinylated) (human, UniProt P06756 31-1048; P05106 27-788, limits assumed).
T2 construct: also called αvβ3; human integrin αvβ3
T2 sequence (P06756 31-1048 limits assumed, form in doubt, chain 1 of 2): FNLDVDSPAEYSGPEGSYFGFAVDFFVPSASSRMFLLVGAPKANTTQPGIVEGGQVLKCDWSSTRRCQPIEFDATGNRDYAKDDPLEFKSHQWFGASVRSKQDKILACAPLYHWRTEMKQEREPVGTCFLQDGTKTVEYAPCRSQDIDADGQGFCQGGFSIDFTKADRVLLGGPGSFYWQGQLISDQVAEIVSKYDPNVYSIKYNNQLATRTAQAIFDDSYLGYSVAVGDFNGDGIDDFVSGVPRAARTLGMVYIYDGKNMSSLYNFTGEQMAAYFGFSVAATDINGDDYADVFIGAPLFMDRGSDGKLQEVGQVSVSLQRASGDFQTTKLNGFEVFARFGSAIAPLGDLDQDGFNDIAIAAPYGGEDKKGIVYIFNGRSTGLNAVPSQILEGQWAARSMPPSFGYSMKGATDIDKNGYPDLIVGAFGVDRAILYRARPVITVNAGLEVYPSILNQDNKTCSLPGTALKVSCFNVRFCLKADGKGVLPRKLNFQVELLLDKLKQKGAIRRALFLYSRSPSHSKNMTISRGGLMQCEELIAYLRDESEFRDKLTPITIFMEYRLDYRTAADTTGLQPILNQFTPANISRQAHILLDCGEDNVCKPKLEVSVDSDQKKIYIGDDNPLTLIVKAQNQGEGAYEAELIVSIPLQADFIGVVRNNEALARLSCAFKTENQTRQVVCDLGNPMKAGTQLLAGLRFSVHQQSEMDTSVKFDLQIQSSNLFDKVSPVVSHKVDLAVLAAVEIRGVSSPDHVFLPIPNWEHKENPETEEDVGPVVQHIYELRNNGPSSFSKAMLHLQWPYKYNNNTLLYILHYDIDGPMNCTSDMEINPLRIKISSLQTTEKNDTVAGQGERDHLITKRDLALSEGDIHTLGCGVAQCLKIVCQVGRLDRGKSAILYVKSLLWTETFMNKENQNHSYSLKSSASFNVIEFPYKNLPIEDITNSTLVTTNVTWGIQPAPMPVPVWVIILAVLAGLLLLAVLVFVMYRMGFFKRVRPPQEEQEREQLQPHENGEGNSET
T2 sequence (P05106 27-788 limits assumed, form in doubt, chain 2 of 2): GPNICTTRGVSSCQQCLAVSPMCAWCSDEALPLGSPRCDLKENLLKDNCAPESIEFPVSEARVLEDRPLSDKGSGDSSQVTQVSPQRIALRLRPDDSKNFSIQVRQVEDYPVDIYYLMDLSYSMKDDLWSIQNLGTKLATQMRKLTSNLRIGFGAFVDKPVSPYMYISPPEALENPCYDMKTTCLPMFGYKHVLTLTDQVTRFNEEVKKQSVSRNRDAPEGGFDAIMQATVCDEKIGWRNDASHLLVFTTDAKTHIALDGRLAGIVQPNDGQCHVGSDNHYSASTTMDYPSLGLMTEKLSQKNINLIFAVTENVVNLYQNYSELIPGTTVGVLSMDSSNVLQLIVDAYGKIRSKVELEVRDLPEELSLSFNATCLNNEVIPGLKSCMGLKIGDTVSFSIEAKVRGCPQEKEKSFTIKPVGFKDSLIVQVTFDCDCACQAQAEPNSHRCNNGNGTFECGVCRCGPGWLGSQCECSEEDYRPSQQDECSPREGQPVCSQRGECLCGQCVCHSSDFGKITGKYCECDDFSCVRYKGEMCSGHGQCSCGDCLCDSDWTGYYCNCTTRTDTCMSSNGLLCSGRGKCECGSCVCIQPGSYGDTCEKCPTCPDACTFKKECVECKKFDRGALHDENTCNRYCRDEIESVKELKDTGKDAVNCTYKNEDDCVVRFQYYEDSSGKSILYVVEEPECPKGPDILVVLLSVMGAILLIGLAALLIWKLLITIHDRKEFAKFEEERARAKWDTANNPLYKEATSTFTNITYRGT
Put plainly: ORIGEN electrochemiluminescence; antibody dilutions with biotinylated purified integrin, captured on streptavidin beads. On the procedure:
The relative binding avidity of CPB9 was compared to that of the original murine B9 antibody as follows. CPB9 antibodies present in culture supernatants from cells maintained in culture for 5 days after transfection with the expression constructs were compared to the parental murine B9 antibody using the ORIGEN technology (IGEN Inc, Gaithersburg, Md.). Briefly, different dilutions of the B9 variants were incubated with purified human αvβ3 integrin which had previously been biotinylated, and an electrochemiluminescent TAG moiety specific for the antibody C regions. B9 variant antibody bound to the integrin was measured by capturing the immune complexes onto streptavidin beads followed by analysis on the ORIGEN instrument.

B1: murine anti-erythropoietin receptor antibody 3G9 (antibody, V domains shown)
VH: QVQLQQPGAELVKSGASVKLSCKASGSTFTSYWMHWVKQRPGRGLEWIGRIDPNSGGTKDNEKFKSKATLTVDKPSSTAYMQLSSLTSEDSAVYYCARETYYDSSFAYWGQGTLVTVSA
VL: DIVMTQSQKFMSTSVGDRVSVTCKASQNVGTNVAWYQQKPGQSPKALIYSASYRYSGVPDRFTGSGSGTDFTLTISNVQSEDLAEYFCQQYNSYPLTFGAGTKLELKR
notes: Murine monoclonal antibody; also called murine 3G9; parent murine 3G9
As to B1, in assay [1], the dissociation constant (Kd) (commonly the constant that tells how readily two partners part at equilibrium) turned out to be 3.3 nM. For the same molecule, the kon (as a rule, a measure of how fast the partners come together) in assay [2] was 1.2e+06 M⁻¹ s⁻¹. Moreover, the dissociation rate constant (koff) – broadly, the first-order rate constant of dissociation – in assay [3] worked out at 0.004 s⁻¹.

B2: engineered 3G9 (CP3G9), chimpanzee framework engineered anti-erythropoietin receptor antibody (antibody, IgG1, V domains shown)
VH: QVQLVQSGAEVKKPGSSVKVSCKASGSTFTSYWMHWVKQAPGQGLEWIGRIDPNSGGTKDNEKFKSKATLNVDKSTNIAYMELTSLRSEDTAVYYCARETYYDSSFAYWGQGTMVTVS
VL: DIVMTQSPSSLSASVGDRVTITCKASQNVGTNVAWYQQKPGKAPKALIYSASYRYSGVPDRFSGSGSGTDFTLTISSLQPEDFATYYCQQYNSYPLTFGGGTKVEIK
notes: They were ligated into vectors with IgG1,kappa antibody constant regions and expressed in COS cells; also called chimpanzee version of 3G9
In the case of B2, the “fold difference of KD against murine 3G9” value in assay [4] is at most 3 fold. Besides, the koff in assay [5] was 0.0091 s⁻¹. In assay [6], the on-rate (kon) stood at 1e+06 M⁻¹ s⁻¹. Further, in assay [7], the Kd amounted to 9.1 nM.

B3: engineered B9 (CPB9), chimpanzee framework engineered anti-integrin antibody (antibody, IgG1, V domains shown)
VH: QVQLVQSGAEVKKPGSSVKVSCKASGYTFSSYWIEWVKQAPGQGLEWIGEILPRSGNTNYNEKFKGKASFNADTSTNIAYMELTSLRSEDTAVYYCSSRGVRGSMDYWGQGTLVTVSS
VL: DIQMTQSPSSLSASVGDRVTITCRSSQDISNFLNWYQQKPGKAPKLLIYYTSTLHSGVPSRFSGSGSGTDYTLTISSLQPEDFATYYCQQGNTLPWTFGGGTKVEIKR
notes: They were ligated into vectors with IgG1,kappa antibody constant regions and expressed in COS cells; Tested as culture supernatant
As to B3, the “fold displacement of binding curve against murine B9” value in assay [8] is around 3 fold.
